Laboratory results published in patent US12589164.

Legend:
[1] = biological target: (MCA)-Ser-Pro-Trp-Gly-Leu-His-Gln-Ser-Arg-Gly-Lys (DNP)-D-Arg (SEQ ID NO: 663)
[2] = biological target: peptide probe with CM … (SEQ ID NO: 650)
[3] = biological target: (MCA)-His-Gln-Ser-Arg-Ser-Pro-Trp-Gly-Gly-Ser-Lys (DNP)-D-Arg (SEQ ID NO: 661)
[4] = biological target: (MCA)-His-Gln-Ser-Arg-Ser-Gly-Pro-Trp-Gly-Leu-X1-Lys (DNP)-D-Arg (SEQ ID NO: 659) where X1 is absent
[5] = biological target: (MCA)-Ser-Pro-Trp-Gly-Leu-His-Gln-Ser-Arg-Ser-Lys (DNP)-D-Arg (SEQ ID NO: 657)
[6] = biological target: peptide probe with CM … (SEQ ID NO: 641)
[7] = biological target: peptide probe with CM … (SEQ ID NO: 646)
[8] = biological target: D-Arg-Lys (DNP)-Ala-Ile-Ala-Leu-His-Gln-Ser-Arg-Ser-Lys (MCA)-D-Arg (SEQ ID NO: 658)
[9] = biological target: (MCA)-His-Gln-Ser-Arg-Pro-Trp-Gly-Leu-Gly-Ser-Lys (DNP)-D-Arg (SEQ ID NO: 660)
[10] = biological target: (MCA)-Ser-Pro-Trp-Gly-Leu-His-Gln-Ser-Lys-Ser-Lys (DNP)-D-Arg (SEQ ID NO: 664)
[11] = biological target: peptide probe with CM … (SEQ ID NO: 644)
[12] = biological target: peptide probe with CM … (SEQ ID NO: 645)
[13] = biological target: (MCA)-His-Gln-Ser-Arg-Ser-Ala-Ile-Ala-Leu-X1-Gly-Lys (DNP)-D-Arg (SEQ ID NO: 654) where X1 is Y
[14] = biological target: (MCA)-His-Gln-Ser-Arg-Ser-Ala-Ile-Ala-Leu-X1-X2-Lys (DNP)-D-Arg (SEQ ID NO: 653) where X1 is Y and X2 is A
[15] = biological target: peptide probe with CM … (SEQ ID NO: 648)
[16] = biological target: peptide probe with CM … (SEQ ID NO: 647)
[17] = biological target: peptide probe with CM … (SEQ ID NO: 649)
[18] = biological target: (MCA)-His-Gln-Ser-Arg-Ser-Ala-Ile-Ala-Leu-Gly-Ser-Lys (DNP)-D-Arg (SEQ ID NO: 655)
[19] = biological target: peptide probe with CM … (SEQ ID NO: 643)
[20] = biological target: peptide probe with CM … (SEQ ID NO: 639)
[21] = biological target: peptide probe with CM … (SEQ ID NO: 642)
[22] = biological target: (MCA)-His-Gln-Ser-Arg-Ser-Pro-Trp-Gly-Leu-Gly-Lys (DNP)-D-Arg (SEQ ID NO: 665)

Row | Protein | Probe Cleavage (pM/s) [1] [pM/s] | Probe Cleavage (pM/s) [2] [pM/s] | Probe Cleavage (pM/s) [3] [pM/s] | Probe Cleavage (pM/s) [4] [pM/s] | Probe Cleavage (pM/s) [5] [pM/s] | Probe Cleavage Kcat/KM [5] [M⁻¹ s⁻¹] | Probe Cleavage (pM/s) [6] | Probe Cleavage (pM/s) [7] | Probe Cleavage (pM/s) [8] [pM/s] | Probe Cleavage Kcat/KM [8] [M⁻¹ s⁻¹] | Probe Cleavage (pM/s) [9] [pM/s] | Probe Cleavage (pM/s) [10] [pM/s] | Probe Cleavage (pM/s) [11] [pM/s] | Probe Cleavage (pM/s) [12] [pM/s] | Probe Cleavage (pM/s) [13] [pM/s] | Probe Cleavage Kcat/KM [13] [M⁻¹ s⁻¹] | Probe Cleavage (pM/s) [14] [pM/s] | Probe Cleavage Kcat/KM [14] [M⁻¹ s⁻¹] | Probe Cleavage (pM/s) [15] [pM/s] | Probe Cleavage (pM/s) [16] | further results
1 | MMP2 (protein) YNFFPRKPKWDKNQITYRIIGYTPDLDPETVDDAFARAFQVWSDVTPLRFSRIHDGEADIMINFGRWEHGDGYPFDGKDGLLAHAFAPGTGVGGDSHFDDDELWTLGEGQVVRVKYGNADGEYCKFPFLFNGKEYNSCTDTGRSDGFLWCSTTYNFEKDGKYGFCPHEALFTMGGNAEGQPCKFPFRFQGTSYDSCTTEGRTDGYRWCGTTEDYDRDKKYGFCPETAMSTVGGNSEGAPCVFPFTFLGNKYESCTSAGRSDGKMWCATTANYDDDRKWGFCPDQGYSLFLVAAHEFGHAMGLEHSQDPGALMAPIYTYTKNFRLSQDDIKGIQELYGASPDIDLGTGPTPTLGPVTPEICKQDIVFDGIAQIRGEIFFFKDRFIWRTVTPRDKPMGPLLVATFWPELPEKIDAVYEAPQEEKAVFFAGNEYWIYSASTLERGYPKPLTSLGLPPDVQRVDAAFNWSKNKKTYIFAGDKFWRYNEVKKKMDPGFPKLIADAWNAIPDNLDAVVDLQGGGHSYFFKGAYYLKLENQSLKSVKFGSIKSDWLGC | 6840 | 410 | 61.6 | 94.8 | 2550 | 54000 | 726 pM/s | 1390 pM/s | 4220 | 17000 | 4020 | 6640 | 696 | 594 | 434 | 67000 | 468 | 29000 | 488 | 65.4 pM/s | Probe Cleavage (pM/s) [17]: 61.1 pM/s; Probe Cleavage (pM/s) [18]: 76.9 pM/s; Probe Cleavage Kcat/KM [18]: 4900 M⁻¹ s⁻¹; Probe Cleavage (pM/s) [19]: 623 pM/s; Probe Cleavage (pM/s) [20]: 17600 pM/s; Probe Cleavage (pM/s) [21]: 692 pM/s; Probe Cleavage (pM/s) [22]: 44.2 pM/s
2 | membrane type serine protease 1 (MT-SP1) (protein) VVGGTDADEGEWPWQVSLHALGQGHICGASLISPNWLVSAAHCYIDDRGFRYSDPTQWTAFLGLHDQSQRSAPGVQERRLKRIISHPFFNDFTFDYDIALLELEKPAEYSSMVRPICLPDASHVFPAGKAIWVTGWGHTQYGGTGALILQKGEIRVINQTTCENLLPQQITPRMMCVGFLSGGVDSCQGDSGGPLSSVEADGRIFQAGVVSWGDGCAQRNKPGVYTRLPLFRDWIKENTGV | 540 | 7920 | 3470 | 9930 | 1280 | 28000 | Above limit of quantitation | Above limit of quantitation | 11500 | 55000 | 32 | 1630 | 8 | 7330 | 1960 | 790000 | 1750 | 630000 | 4120 | Above limit of quantitation | Probe Cleavage (pM/s) [17]: 7780 pM/s; Probe Cleavage (pM/s) [18]: Above limit of quantitation; Probe Cleavage Kcat/KM [18]: 510000 M⁻¹ s⁻¹; Probe Cleavage (pM/s) [19]: 11300 pM/s; Probe Cleavage (pM/s) [20]: 10800 pM/s; Probe Cleavage (pM/s) [21]: 1860 pM/s; Probe Cleavage (pM/s) [22]: 1210 pM/s; Probe Cleavage Kcat/KM [22]: 35000 M⁻¹ s⁻¹
